Reference: patent US20180155451A1 (published 2018)

T1: FcγRIIa H (human, UniProt P12318 34-217)
T1 construct: extracellular domain; also called FcgRIIa H; FcγRIIa type H; not shown: His tag attached to the C terminus
T1 sequence (looked up): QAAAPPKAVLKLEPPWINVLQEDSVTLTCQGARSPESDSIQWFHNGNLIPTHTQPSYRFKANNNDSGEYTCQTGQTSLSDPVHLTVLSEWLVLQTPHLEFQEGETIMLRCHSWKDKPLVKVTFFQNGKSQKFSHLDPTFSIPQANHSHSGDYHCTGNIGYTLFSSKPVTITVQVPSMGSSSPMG

T2: FcγRIIb (human, UniProt P31994 43-217)
T2 construct: extracellular domain; also called FcgRIIb; 2b; not shown: His tag attached to the C terminus
T2 sequence (looked up): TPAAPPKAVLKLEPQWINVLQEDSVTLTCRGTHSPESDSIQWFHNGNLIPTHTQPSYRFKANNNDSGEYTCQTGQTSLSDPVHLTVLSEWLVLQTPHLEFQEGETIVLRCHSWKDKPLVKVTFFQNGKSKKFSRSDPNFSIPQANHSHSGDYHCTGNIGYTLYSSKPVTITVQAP

T3: FcγRIIb extracellular domain with C-terminal His tag (human, UniProt P31994 43-217)
T3 construct: extracellular domain; also called 2b; FcgRIIb
T3 sequence (looked up): T2 sequence (looked up)

B1: GpH7-A5/GpH7-B3 variant L234_02A/GpL16-k0 (antibody, human IgG1, kappa)
heavy 1: not shown
heavy 2: not shown
light: DIVMTQSPLSLPVTPGEPASISCQASESLVHSNRNTYLHWYLQKPGQSPQLLIYKVSNRFSGVPDRFSGSGSGTDFTLKISRVEAEDVGVYYCSQNTHVPPTFGQGTKVEIERTVAAPSVFIFPPSDEQLKSGTASVVCLLNNFYPREAKVQWKVDNALQSGNSQESVTEQDSKDSTYSLSSTLTLSKADYEKHKVYACEVTHQGLSSPVTKSFNRGEC
notes: Heterodimerized IgG1, mutation in the GpH7-B3 chain only; also called He Ab
B2: GpH7-A5/GpH7-B3 variant E269_01G/GpL16-k0 (antibody, human IgG1, kappa)
heavy 1: not shown
heavy 2: not shown
light: B1 light
notes: He Ab: alteration in one H chain only; also called He Ab
B3: GpH7-A5/GpH7-B3 variant E269_06M/GpL16-k0 (antibody, human IgG1, kappa)
heavy 1: not shown
heavy 2: not shown
light: B1 light
notes: as for B2
B4: GpH7-A5/GpH7-B3 variant G236_08L/GpL16-k0 (antibody, human IgG1, kappa)
heavy 1: not shown
heavy 2: not shown
light: B1 light
notes: as for B2
B5: GpH7-A5/GpH7-B3 variant G236_12R/GpL16-k0 (antibody, human IgG1, kappa)
heavy 1: not shown
heavy 2: not shown
light: B1 light
notes: as for B2
B6: GpH7-A5/GpH7-B3 variant E269_08L/GpL16-k0 (antibody, human IgG1, kappa)
heavy 1: not shown
heavy 2: not shown
light: B1 light
notes: as for B2
B7: GpH7-A5/GpH7-B3 variant L234_14T/GpL16-k0 (antibody, human IgG1, kappa)
heavy 1: not shown
heavy 2: not shown
light: B1 light
notes: as for B1
B8: GpH7-A5/GpH7-B3 variant S239_16H/GpL16-k0 (antibody, human IgG1, kappa)
heavy 1: not shown
heavy 2: not shown
light: B1 light
notes: as for B1
B9: GpH7-A5/GpH7-B3 variant L235_19Q/GpL16-k0 (antibody, human IgG1, kappa)
heavy 1: not shown
heavy 2: not shown
light: B1 light
notes: as for B1
B10: GpH7-A5/GpH7-B3 variant E269_03V/GpL16-k0 (antibody, human IgG1, kappa)
heavy 1: not shown
heavy 2: not shown
light: B1 light
notes: as for B2
B11: GpH7-A5/GpH7-B3 variant G236_07I/GpL16-k0 (antibody, human IgG1, kappa)
heavy 1: not shown
heavy 2: not shown
light: B1 light
notes: as for B2
B12: GpH7-A5/GpH7-B3 variant L234_05P/GpL16-k0 (antibody, human IgG1, kappa)
heavy 1: not shown
heavy 2: not shown
light: B1 light
notes: as for B1
B13: GpH7-A5/GpH7-B3 variant L234_15Y/GpL16-k0 (antibody, human IgG1, kappa)
heavy 1: not shown
heavy 2: not shown
light: B1 light
notes: as for B1
B14: GpH7-A5/GpH7-B3 variant E269_12R/GpL16-k0 (antibody, human IgG1, kappa)
heavy 1: not shown
heavy 2: not shown
light: B1 light
notes: as for B2
B15: GpH7-A5/GpH7-B3 variant E269_18N/GpL16-k0 (antibody, human IgG1, kappa)
heavy 1: not shown
heavy 2: not shown
light: B1 light
notes: as for B2
B16: GpH7-A5/GpH7-B3 variant S239_11K/GpL16-k0 (antibody, human IgG1, kappa)
heavy 1: not shown
heavy 2: not shown
light: B1 light
notes: as for B1
B17: GpH7-A5/GpH7-B3 variant L235_11K/GpL16-k0 (antibody, human IgG1, kappa)
heavy 1: not shown
heavy 2: not shown
light: B1 light
notes: as for B1
B18: GpH7-A5/GpH7-B3 variant L234_04F/GpL16-k0 (antibody, human IgG1, kappa)
heavy 1: not shown
heavy 2: not shown
light: B1 light
notes: as for B1
B19: GpH7-A5/GpH7-B3 variant E269_13S/GpL16-k0 (antibody, human IgG1, kappa)
heavy 1: not shown
heavy 2: not shown
light: B1 light
notes: as for B2
B20: GpH7-A5/GpH7-B3 variant E269_16H/GpL16-k0 (antibody, human IgG1, kappa)
heavy 1: not shown
heavy 2: not shown
light: B1 light
notes: as for B2
B21: GpH7-A5/GpH7-B3 variant E269_07I/GpL16-k0 (antibody, human IgG1, kappa)
heavy 1: not shown
heavy 2: not shown
light: B1 light
notes: as for B2
B22: GpH7-A5/GpH7-B3 variant L234_11K/GpL16-k0 (antibody, human IgG1, kappa)
heavy 1: not shown
heavy 2: not shown
light: B1 light
notes: as for B1
B23: GpH7-A5/GpH7-B3 variant G236_05P/GpL16-k0 (antibody, human IgG1, kappa)
heavy 1: not shown
heavy 2: not shown
light: B1 light
notes: as for B2
B24: GpH7-A5/GpH7-B3 variant L235_01G/GpL16-k0 (antibody, human IgG1, kappa)
heavy 1: not shown
heavy 2: not shown
light: B1 light
notes: as for B1
B25: GpH7-A5/GpH7-B3 variant L235_12R/GpL16-k0 (antibody, human IgG1, kappa)
heavy 1: not shown
heavy 2: not shown
light: B1 light
notes: as for B2
B26: GpH7-A5/GpH7-B3 variant G236_04F/GpL16-k0 (antibody, human IgG1, kappa)
heavy 1: not shown
heavy 2: not shown
light: B1 light
notes: as for B2
B27: GpH7-A5/GpH7-B3 variant E269_11K/GpL16-k0 (antibody, human IgG1, kappa)
heavy 1: not shown
heavy 2: not shown
light: B1 light
notes: as for B2
B28: GpH7-A5/GpH7-B3 variant S239_12R/GpL16-k0 (antibody, human IgG1, kappa)
heavy 1: not shown
heavy 2: not shown
light: B1 light
notes: as for B1
B29: GpH7-A5/GpH7-B3 variant L235_18N/GpL16-k0 (antibody, human IgG1, kappa)
heavy 1: not shown
heavy 2: not shown
light: B1 light
notes: as for B1
B30: GpH7-A5/GpH7-B3 variant E269_02A/GpL16-k0 (antibody, human IgG1, kappa)
heavy 1: not shown
heavy 2: not shown
light: B1 light
notes: as for B2
B31: GpH7-A5/GpH7-B3 variant L235_14T/GpL16-k0 (antibody, human IgG1, kappa)
heavy 1: not shown
heavy 2: not shown
light: B1 light
notes: as for B1
B32: GpH7-A5/GpH7-B3 variant L235_13S/GpL16-k0 (antibody, human IgG1, kappa)
heavy 1: not shown
heavy 2: not shown
light: B1 light
notes: as for B1
B33: GpH7-A5/GpH7-B3 variant L234_16H/GpL16-k0 (antibody, human IgG1, kappa)
heavy 1: not shown
heavy 2: not shown
light: B1 light
notes: as for B1
B34: GpH7-A5/GpH7-B3 variant L235_03V/GpL16-k0 (antibody, human IgG1, kappa)
heavy 1: not shown
heavy 2: not shown
light: B1 light
notes: as for B1
B35: GpH7-A5/GpH7-B3 variant L234_19Q/GpL16-k0 (antibody, human IgG1, kappa)
heavy 1: not shown
heavy 2: not shown
light: B1 light
notes: as for B1
B36: GpH7-A5/GpH7-B3 variant G236_03V/GpL16-k0 (antibody, human IgG1, kappa)
heavy 1: not shown
heavy 2: not shown
light: B1 light
notes: as for B2
B37: GpH7-A5/GpH7-B3 variant L234_13S/GpL16-k0 (antibody, human IgG1, kappa)
heavy 1: not shown
heavy 2: not shown
light: B1 light
notes: as for B1
B38: GpH7-A5/GpH7-B3 variant L234_12R/GpL16-k0 (antibody, human IgG1, kappa)
heavy 1: not shown
heavy 2: not shown
light: B1 light
notes: as for B1

Key:
[1] = target: T1, FcγRIIa H; assay: SPR (Biacore), antibody captured, FcγR as analyte; binding relative to GpH7-A5/GpH7-B3/GpL16-k0 = 100
[2] = target: T2, FcγRIIb; assay: as above
[3] = target: T1, FcγRIIa H; assay: ratio of He/Con_2aH to He/Con_2b (relative SPR binding to FcγRIIa H over FcγRIIb)
[4] = target: T4, FcγRIIIa extracellular domain with C-terminal His tag (human, UniProt P08637 17-208); assay: SPR, relative to GpH7-A5/GpH7-B3/GpL16-k0
T4 construct: extracellular domain; also called 3a; FcgRIIIa

[5] = target: T3, FcγRIIb extracellular domain with …; assay: SPR, relative to GpH7-A5/GpH7-B3/GpL16-k0
[6] = target: T4, FcγRIIIa extracellular domain with …; assay: SPR; He/Con_3a over He/Con_2b (FcγRIIb)

T4 sequence (P08637 17-208): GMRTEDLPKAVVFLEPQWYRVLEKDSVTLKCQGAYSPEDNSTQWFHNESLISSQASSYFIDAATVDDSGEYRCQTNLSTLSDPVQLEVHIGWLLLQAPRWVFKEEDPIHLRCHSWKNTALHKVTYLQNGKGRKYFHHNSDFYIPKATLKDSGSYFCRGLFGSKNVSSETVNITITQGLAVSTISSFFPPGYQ

Binder	He/Con_2aH [1] [control = 100]	He/Con_2b [2] [control = 100]	He_2aH/2b (IIaH/IIb) [3]	He/Con_3a [4] [control=100]	He/Con_2b [5] [control=100]	He_3a/2b (IIIa/IIb) [6] [ratio]
B1	81	64.9	1.25	–	–	–
B2	–	–	–	62.2	51.5	1.21
B3	–	–	–	58.5	46.7	1.25
B4	–	–	–	32.5	26.8	1.21
B5	–	–	–	12.5	6.8	1.84
B6	–	–	–	52.1	42.9	1.21
B7	78.1	62.5	1.25	–	–	–
B8	59.4	49.4	1.2	–	–	–
B9	62	42.6	1.45	–	–	–
B10	–	–	–	56.6	45.1	1.25
B11	–	–	–	59.7	31	1.93
B12	93.5	72.9	1.28	–	–	–
B13	120	96.3	1.25	–	–	–
B14	–	–	–	43.2	25.2	1.72
B15	–	–	–	57.8	44.8	1.29
B16	48.1	24.7	1.94	–	–	–
B17	22.7	6.3	3.61	–	–	–
B18	120	99.8	1.2	–	–	–
B19	–	–	–	62.7	47.8	1.31

Binder	He/Con_2aH [1] [control = 100]	He/Con_2b [2] [control = 100]	He_2aH/2b (IIaH/IIb) [3]	He/Con_3a [4] [control=100]	He/Con_2b [5] [control=100]	He_3a/2b (IIIa/IIb) [6] [ratio]
B20	–	–	–	51.2	38.5	1.33
B21	–	–	–	55.8	43.9	1.27
B22	40.8	16.2	2.52	–	–	–
B23	–	–	–	37.1	19	1.95
B24	54.1	35.4	1.53	–	–	–
B25	–	–	–	41.2	–	4.29
B26	–	–	–	87	39.3	2.21
B27	–	–	–	44	17.8	2.47
B28	57.1	39.1	1.46	–	–	–
B29	66.1	54.9	1.2	–	–	–
B30	–	–	–	68.7	49.9	1.38
B31	71.5	46.8	1.53	–	–	–
B32	66.1	48.2	1.37	–	–	–
B33	87.3	59.4	1.47	–	–	–
B34	85.3	66.4	1.28	–	–	–
B35	79.2	60.3	1.31	–	–	–
B36	–	–	–	57.7	35.3	1.64
B37	80.4	59.3	1.36	–	–	–
B38	47.7	18.9	2.53	–	–	–
